Publication PMC5794333, “Identification of osmoadaptive strategies in the halophile, heterotrophic ciliate Schmidingerothrix salinarum” (PLoS Biology, 2018)

What was measured:
purified protein [1] = substrate: O=C(O)CC(=O)C(=O)O; assay: purified protein; conditions: 0.05 M NaCl, 0.3 mM NADH, 32.5 mM Tris/HCl pH 7.5
purified protein [2] = substrate: O=C(O)CC(C(=O)O)C(O)C(=O)O; assay: purified protein; type: biochemical, Escherichia coli; conditions: 0.05 M NaCl, 0.8 mM NADP+, 1 mM MgCl2, 32.5 mM Tris/HCl pH 7.5, concentration as DL-isocitrate

Protein | Km (purified protein [1]) | Vmax (purified protein [1]) | Km (purified protein [2]) | Vmax (purified protein [2])
MDHE.coli (Escherichia coli K-12) (protein) MKVAVLGAAGGIGQALALLLKTQLPSGSELSLYDIAPVTPGVAVDLSHIPTAVKIKGFSGEDATPALEGADVVLISAGVARKPGMDRSDLFNVNAGIVKNLVQQVAKTCPKACIGIITNPVNTTVAIAAEVLKKAGVYDKNKLFGVTTLDIIRSNTFVAELKGKQPGEVEVPVIGGHSGVTILPLLSQVPGVSFTEQEVADLTKRIQNAGTEVVEAKAGGGSATLSMGQAAARFGLSLVRALQGEQGVVECAYVEGDGQYARFFSQPLLLGKNGVEERKSIGTLSAFEQNALEGMLDTLKKDIALGEEFVNK | 0.022 mM | 1490 µmol/min/mg | – | –
ICDHE.coli (Escherichia coli K-12) (protein, N-terminal His-tag, cloned from genomic DNA into pETDuet-1, E. coli BL21; Ni-NTA) MESKVVVPAQGKKITLQNGKLNVPENPIIPYIEGDGIGVDVTPAMLKVVDAAVEKAYKGERKISWMEIYTGEKSTQVYGQDVWLPAETLDLIREYRVAIKGPLTTPVGGGIRSLNVALRQELDLYICLRPVRYYQGTPSPVKHPELTDMVIFRENSEDIYAGIEWKADSADAEKVIKFLREEMGVKKIRFPEHCGIGIKPCSEEGTKRLVRAAIEYAIANDRDSVTLVHKGNIMKFTEGAFKDWGYQLAREEFGGELIDGGPWLKVKNPNTGKEIVIKDVIADAFLQQILLRPAEYDVIACMNLNGDYISDALAAQVGGIGIAPGANIGDECALFEATHGTAPKYAGQDKVNPGSIILSAEMMLRHMGWTEAADLIVKGMEGAINAKTVTYDFERLMDGAKLLKCSEFGDAIIENM | – | – | 0.021 mM | 46 µmol/min/mg
